Results: US20170051281A1 (TRUSTEES OF COLUMBIA UNIVERSITY IN THE CITY OF NEW YORK, published 2017)

Target: T1, Centromere protein F (CENPF) (human, UniProt P49454 1-3111, limits assumed)
T1 construct: also called CENF; PRO 1779
Assay: co-immunoprecipitation

T1 sequence (P49454 1-3111 limits assumed): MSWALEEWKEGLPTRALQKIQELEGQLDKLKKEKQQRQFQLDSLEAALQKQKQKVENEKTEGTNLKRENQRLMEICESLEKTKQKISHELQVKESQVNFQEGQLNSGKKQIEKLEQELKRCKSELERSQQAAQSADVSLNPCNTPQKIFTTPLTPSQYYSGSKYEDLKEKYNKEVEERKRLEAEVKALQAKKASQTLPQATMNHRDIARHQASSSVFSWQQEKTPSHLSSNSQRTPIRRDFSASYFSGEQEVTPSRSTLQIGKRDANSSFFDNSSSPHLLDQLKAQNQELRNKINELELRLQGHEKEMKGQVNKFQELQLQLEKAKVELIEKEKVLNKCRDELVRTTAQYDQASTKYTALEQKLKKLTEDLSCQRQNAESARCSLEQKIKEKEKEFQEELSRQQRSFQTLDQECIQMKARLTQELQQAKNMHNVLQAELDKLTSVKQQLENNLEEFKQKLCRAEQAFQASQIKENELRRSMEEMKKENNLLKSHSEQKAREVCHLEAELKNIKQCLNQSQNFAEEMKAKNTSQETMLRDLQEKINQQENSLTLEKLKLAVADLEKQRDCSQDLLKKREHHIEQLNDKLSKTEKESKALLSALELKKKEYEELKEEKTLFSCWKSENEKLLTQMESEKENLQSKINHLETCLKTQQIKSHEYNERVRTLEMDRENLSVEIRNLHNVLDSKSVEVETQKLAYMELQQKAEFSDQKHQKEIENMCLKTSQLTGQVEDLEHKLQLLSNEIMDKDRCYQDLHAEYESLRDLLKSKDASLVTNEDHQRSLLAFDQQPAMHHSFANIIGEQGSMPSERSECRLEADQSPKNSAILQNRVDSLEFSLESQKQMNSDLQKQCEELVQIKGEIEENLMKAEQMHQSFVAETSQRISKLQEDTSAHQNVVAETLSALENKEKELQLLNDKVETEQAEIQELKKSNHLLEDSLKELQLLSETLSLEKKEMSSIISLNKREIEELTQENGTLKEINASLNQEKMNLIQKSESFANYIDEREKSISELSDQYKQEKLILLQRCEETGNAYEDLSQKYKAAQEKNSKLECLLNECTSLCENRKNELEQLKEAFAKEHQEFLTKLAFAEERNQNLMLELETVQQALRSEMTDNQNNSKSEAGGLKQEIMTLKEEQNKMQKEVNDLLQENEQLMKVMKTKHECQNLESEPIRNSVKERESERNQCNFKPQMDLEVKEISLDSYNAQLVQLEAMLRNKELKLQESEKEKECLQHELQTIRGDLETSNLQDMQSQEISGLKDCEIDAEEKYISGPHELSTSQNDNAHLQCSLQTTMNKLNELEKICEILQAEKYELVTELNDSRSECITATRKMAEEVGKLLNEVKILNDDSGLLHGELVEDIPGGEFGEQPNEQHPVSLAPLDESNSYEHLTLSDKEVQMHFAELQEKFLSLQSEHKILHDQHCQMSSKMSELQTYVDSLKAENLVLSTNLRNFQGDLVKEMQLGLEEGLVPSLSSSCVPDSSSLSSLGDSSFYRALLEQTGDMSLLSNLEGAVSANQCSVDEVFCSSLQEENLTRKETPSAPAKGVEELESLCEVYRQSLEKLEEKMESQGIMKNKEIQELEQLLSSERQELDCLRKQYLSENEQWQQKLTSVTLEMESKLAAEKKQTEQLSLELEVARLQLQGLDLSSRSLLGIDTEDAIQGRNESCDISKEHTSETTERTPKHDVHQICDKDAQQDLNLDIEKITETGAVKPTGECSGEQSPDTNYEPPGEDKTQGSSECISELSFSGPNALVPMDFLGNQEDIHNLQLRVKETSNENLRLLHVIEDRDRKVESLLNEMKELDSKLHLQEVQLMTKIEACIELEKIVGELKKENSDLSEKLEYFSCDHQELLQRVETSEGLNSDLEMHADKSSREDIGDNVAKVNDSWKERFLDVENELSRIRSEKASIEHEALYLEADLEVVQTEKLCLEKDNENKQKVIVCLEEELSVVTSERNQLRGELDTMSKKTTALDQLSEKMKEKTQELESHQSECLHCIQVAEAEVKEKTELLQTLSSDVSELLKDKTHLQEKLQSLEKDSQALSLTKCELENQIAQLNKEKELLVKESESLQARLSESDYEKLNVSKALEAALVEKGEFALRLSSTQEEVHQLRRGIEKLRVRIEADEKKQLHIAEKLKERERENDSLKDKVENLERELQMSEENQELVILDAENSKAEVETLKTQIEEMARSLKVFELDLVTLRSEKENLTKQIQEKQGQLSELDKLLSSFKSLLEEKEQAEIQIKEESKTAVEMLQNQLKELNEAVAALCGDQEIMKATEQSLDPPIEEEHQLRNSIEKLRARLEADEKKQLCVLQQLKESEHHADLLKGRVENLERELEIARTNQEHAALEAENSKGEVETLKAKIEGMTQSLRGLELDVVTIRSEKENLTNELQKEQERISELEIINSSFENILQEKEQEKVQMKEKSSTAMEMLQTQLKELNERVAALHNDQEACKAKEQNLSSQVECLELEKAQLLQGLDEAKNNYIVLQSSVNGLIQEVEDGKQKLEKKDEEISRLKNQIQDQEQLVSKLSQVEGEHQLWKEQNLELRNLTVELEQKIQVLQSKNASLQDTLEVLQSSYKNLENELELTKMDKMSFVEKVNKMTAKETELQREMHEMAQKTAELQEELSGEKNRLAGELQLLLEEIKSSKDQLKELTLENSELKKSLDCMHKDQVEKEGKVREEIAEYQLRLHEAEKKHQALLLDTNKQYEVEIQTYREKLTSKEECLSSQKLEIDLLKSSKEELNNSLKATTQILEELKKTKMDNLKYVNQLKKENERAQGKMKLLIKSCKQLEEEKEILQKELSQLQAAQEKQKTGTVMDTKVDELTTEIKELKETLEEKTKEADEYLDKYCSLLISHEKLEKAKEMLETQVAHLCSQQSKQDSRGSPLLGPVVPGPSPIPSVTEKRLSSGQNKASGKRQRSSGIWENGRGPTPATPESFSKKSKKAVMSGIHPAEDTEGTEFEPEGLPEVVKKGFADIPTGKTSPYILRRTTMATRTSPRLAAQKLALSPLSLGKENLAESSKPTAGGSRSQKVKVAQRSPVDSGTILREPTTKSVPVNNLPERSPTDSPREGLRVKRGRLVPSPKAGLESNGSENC

B1: Forkhead box protein M1 (FOXM1) (other)
chain: MKTSPRRPLILKRRRLPLPVQNAPSETSEEEPKRSPAQQESNQAEASKEVAESNSCKFPAGIKIINHPTMPNTQVVAIPNNANIHSIITALTAKGKESGSSGPNKFILISCGGAPTQPPGLRPQTQTSYDAKRTEVTLETLGPKPAARDVNLPRPPGALCEQKRETCDGEAAGCTINNSLSNIQWLRKMSSDGLGSRSIKQEMEEKENCHLEQRQVKVEEPSRPSASWQNSVSERPPYSYMAMIQFAINSTERKRMTLKDIYTWIEDHFPYFKHIAKPGWKNSIRHNLSLHDMFVRETSANGKVSFWTIHPSANRYLTLDQVFKQQQKRPNPELRRNMTIKTELPLGARRKMKPLLPRVSSYLVPIQFPVNQSLVLQPSVKVPLPLAASLMSSELARHSKRVRIAPKVLLAEEGIAPLSSAGPGKEEKLLFGEGFSPLLPVQTIKEEEIQPGEEMPHLARPIKVESPPLEEWPSPAPSFKEESSHSWEDSSQSPTPRPKKSYSGLRSPTRCVSEMLVIQHRERRERSRSRRKQHLLPPCVDEPELLFSEGPSTSRWAAELPFPADSSDPASQLSYSQEVGGPFKTPIKETLPISSTPSKSVLPRTPESWRLTPPAKVGGLDFSPVQTSQGASDPLPDPLGLMDLSTTPLQSAPPLESPQRLLSSEPLDLISVPFGNSSPSDIDVPKPGSPEPQVSGLAANRSLTEGLVLDTMNDSLSKILLDISFPGLDEDPLGPDNINWSQFIPELQ
notes: also called FKHL16; FOXM1B
B1: no binding.
